Here are results for 2 substances from publication PMC8341435.

Experiment [1] deals with HIV-1 CAP256 SU gp140 NFL, plant-produced (Nicotiana benthamiana) (HIV-1 (CAP256 SU virus)). In words: SEC. Background: In gel filtration, larger molecules generally elute earlier.
Experiment [2] concerns the target HIV-1 CAP256 SU gp140 NFL, mammalian cell-produced (HEK293) (HIV-1 (CAP256 SU virus)). Kind of experiment: native gel or EMSA; BN-PAGE of the pooled trimer fractions on 4-12% NativePAGE Bis-Tris gels, Coomassie-stained. In general terms: Mobility shift assays separate free from complexed probe on a gel.
The target is the same in experiment [3]. Kind of experiment: SEC.

What is called stoichiometry N is the number of molecules, sites or subunits per partner or assembly. On to “HIV-1 CAP256 SU gp140 NFL, plant-produced (Nicotiana benthamiana) (domain or fragment)”, for which the stoichiometry N in experiment [1] was 3. As to “HIV-1 CAP256 SU gp140 NFL, mammalian cell-produced (HEK293) (domain or fragment)”, the stoichiometry N in experiment [2] and in experiment [3] was 3 each time.
